The source of these data is patent publication US20190374506A1 (BETH ISREAL DEACONESS MEDICAL CENTER, published 2019).

For this assay, the target named is T1, HA-PTEN (human, UniProt P60484 1-403).
T1 construct: Expressed in DU145 cells and immunoprecipitated with anti-PTEN antibody for mass spectrometry; also called exogenous PTEN; pcDNA3-HA-PTEN; not shown: HA tag
The assay is described as follows: anti-PTEN immunoprecipitation from DU145 cells transfected with HA-PTEN, SDS-PAGE, mass-spectrometric peptide sequencing of the bands (association in the precipitate). The source says:
FIG. 2A is a Western blot. Lysates from DU145 cells transfected with HA-PTEN were immunoprecipitated with an anti-PTEN antibody followed by mass-spectrometric peptide sequencing. WWP1 and NEDD4-1 were identified.
In order to identify the E3 ligases that induce PTEN atypical K27-linked poly-ubiquitination, exogenous PTEN was immunoprecipitated from DU145 cells, followed by identification of the proteins that interacted with PTEN by mass spectrometry (FIG. 2A; FIG. 18).

B1: Structural maintenance of chromosomes protein 1A (other)
chain: MGFLKLIEIENFKSYKGRQIIGPFQRFTAIIGPNGSGKSNLMDAISFVLGEKTSNLRVKTLRDLIHGAPVGKPAANRAFVSMVYSEEGAEDRTFARVIVGGSSEYKINNKVVQLHEYSEELEKLGILIKARNFLVFQGAVESIAMKNPKERTALFEEISRSGELAQEYDKRKKEMVKAEEDTQFNYHRKKNIAAERKEAKQEKEEADRYQRLKDEVVRAQVQLQLFKLYHNEVEIEKLNKELASKNKEIEKDKKRMDKVEDELKEKKKELGKMMREQQQIEKEIKEKDSELNQKRPQYIKAKENTSHKIKKLEAAKKSLQNAQKHYKKRKGDMDELEKEMLSVEKARQEFEERMEEESQSQGRDLTLEENQVKKYHRLKEEASKRAATLAQELEKFNRDQKADQDRLDLEERKKVETEAKIKQKLREIEENQKRIEKLEEYITTSKQSLEEQKKLEGELTEEVEMAKRRIDEINKELNQVMEQLGDARIDRQESSRQQRKAEIMESIKRLYPGSVYGRLIDLCQPTQKKYQIAVTKVLGKNMDAIIVDSEKTGRDCIQYIKEQRGEPETFLPLDYLEVKPTDEKLRELKGAKLVIDVIRYEPPHIKKALQYACGNALVCDNVEDARRIAFGGHQRHKTVALDGTLFQKSGVISGGASDLKAKARRWDEKAVDKLKEKKERLTEELKEQMKAKRKEAELRQVQSQAHGLQMRLKYSQSDLEQTKTRHLALNLQEKSKLESELANFGPRINDIKRIIQSREREMKDLKEKMNQVEDEVFEEFCREIGVRNIREFEEEKVKRQNEIAKKRLEFENQKTRLGIQLDFEKNQLKEDQDKVHMWEQTVKKDENEIEKLKKEEQRHMKIIDETMAQLQDLKNQHLAKKSEVNDKNHEMEEIRKKLGGANKEMTHLQKEVTAIETKLEQKRSDRHNLLQACKMQDIKLPLSKGTMDDISQEEGSSQGEDSVSGSQRISSIYAREALIEIDYGDLCEDLKDAQAEEEIKQEMNTLQQKLNEQQSVLQRIAAPNMKAMEKLESVRDKFQETSDEFEAARKRAKKAKQAFEQIKKERFDRFNACFESVATNIDEIYKALSRNSSAQAFLGPENPEEPYLDGINYNCVAPGKRFRPMDNLSGGEKTVAALALLFAIHSYKPAPFFVLDEIDAALDNTNIGKVANYIKEQSTCNFQAIVISLKEEFYTKAESLIGVYPEQGDCVISKVLTFDLTKYPDANPNPNEQ
With B1, the binding result was “binds”.

B2: Heterogeneous nuclear ribonucleoprotein U-like protein 1 (other)
chain: MDVRRLKVNELREELQRRGLDTRGLKAELAERLQAALEAEEPDDERELDADDEPGRPGHINEEVETEGGSELEGTAQPPPPGLQPHAEPGGYSGPDGHYAMDNITRQNQFYDTQVIKQENESGYERRPLEMEQQQAYRPEMKTEMKQGAPTSFLPPEASQLKPDRQQFQSRKRPYEENRGRGYFEHREDRRGRSPQPPAEEDEDDFDDTLVAIDTYNCDLHFKVARDRSSGYPLTIEGFAYLWSGARASYGVRRGRVCFEMKINEEISVKHLPSTEPDPHVVRIGWSLDSCSTQLGEEPFSYGYGGTGKKSTNSRFENYGDKFAENDVIGCFADFECGNDVELSFTKNGKWMGIAFRIQKEALGGQALYPHVLVKNCAVEFNFGQRAEPYCSVLPGFTFIQHLPLSERIRGTVGPKSKAECEILMMVGLPAAGKTTWAIKHAASNPSKKYNILGTNAIMDKMRVMGLRRQRNYAGRWDVLIQQATQCLNRLIQIAARKKRNYILDQTNVYGSAQRRKMRPFEGFQRKAIVICPTDEDLKDRTIKRTDEEGKDVPDHAVLEMKANFTLPDVGDFLDEVLFIELQREEADKLVRQYNEEGRKAGPPPEKRFDNRGGGGFRGRGGGGGFQRYENRGPPGGNRGGFQNRGGGSGGGGNYRGGFNRSGGGGYSQNRWGNNNRDNNNSNNRGSYNRAPQQQPPPQQPPPPQPPPQQPPPPPSYSPARNPPGASTYNKNSNIPGSSANTSTPTVSSYSPPQPSYSQPPYNQGGYSQGYTAPPPPPPPPPAYNYGSYGGYNPAPYTPPPPPTAQTYPQPSYNQYQQYAQQWNQYYQNQGQWPPYYGNYDYGSYSGNTQGGTSTQ
B2: the binding result is “binds”.

B3: Clustered mitochondria protein homolog (other)
chain: MLLNGDCPESLKKEAAAAEPPRENGLDEAGPGDETTGQEVIVIQDTGFSVKILAPGIEPFSLQVSPQEMVQEIHQVLMDREDTCHRTCFSLHLDGNVLDHFSELRSVEGLQEGSVLRVVEEPYTVREARIHVRHVRDLLKSLDPSDAFNGVDCNSLSFLSVFTDGDLGDSGKRKKGLEMDPIDCTPPEYILPGSRERPLCPLQPQNRDWKPLQCLKVLTMSGWNPPPGNRKMHGDLMYLFVITAEDRQVSITASTRGFYLNQSTAYHFNPKPASPRFLSHSLVELLNQISPTFKKNFAVLQKKRVQRHPFERIATPFQVYSWTAPQAEHAMDCVRAEDAYTSRLGYEEHIPGQTRDWNEELQTTRELPRKNLPERLLRERAIFKVHSDFTAAATRGAMAVIDGNVMAINPSEETKMQMFIWNNIFFSLGFDVRDHYKDFGGDVAAYVAPTNDLNGVRTYNAVDVEGLYTLGTVVVDYRGYRVTAQSIIPGILERDQEQSVIYGSIDFGKTVVSHPRYLELLERTSRPLKILRHQVLNDRDEEVELCSSVECKGIIGNDGRHYILDLLRTFPPDLNFLPVPGEELPEECARAGFPRAHRHKLCCLRQELVDAFVEHRYLLFMKLAALQLMQQNASQLETPSSLENGGPSSLESKSEDPPGQEAGSEEEGSSASGLAKVKELAETIAADDGTDPRSREVIRNACKAVGSISSTAFDIRFNPDIFSPGVRFPESCQDEVRDQKQLLKDAAAFLLSCQIPGLVKDCMEHAVLPVDGATLAEVMRQRGINMRYLGKVLELVLRSPARHQLDHVFKIGIGELITRSAKHIFKTYLQGVELSGLSAAISHFLNCFLSSYPNPVAHLPADELVSKKRNKRRKNRPPGAADNTAWAVMTPQELWKNICQEAKNYFDFDLECETVDQAVETYGLQKITLLREISLKTGIQVLLKEYSFDSRHKPAFTEEDVLNIFPVVKHVNPKASDAFHFFQSGQAKVQQGFLKEGCELINEALNLFNNVYGAMHVETCACLRLLARLHYIMGDYAEALSNQQKAVLMSERVMGTEHPNTIQEYMHLALYCFASSQLSTALSLLYRARYLMLLVFGEDHPEMALLDNNIGLVLHGVMEYDLSLRFLENALAVSTKYHGPKALKVALSHHLVARVYESKAEFRSALQHEKEGYTIYKTQLGEDHEKTKESSEYLKCLTQQAVALQRTMNEIYRNGSSANIPPLKFTAPSMASVLEQLNVINGILFIPLSQKDLENLKAEVARRHQLQEASRNRDRAEEPMATEPAPAGAPGDLGSQPPAAKDPSPSVQG
As for B3, the binding result is reported as “binds”.

B4: Structural maintenance of chromosomes protein 3 (other)
chain: MYIKQVIIQGFRSYRDQTIVDPFSSKHNVIVGRNGSGKSNFFYAIQFVLSDEFSHLRPEQRLALLHEGTGPRVISAFVEIIFDNSDNRLPIDKEEVSLRRVIGAKKDQYFLDKKMVTKNDVMNLLESAGFSRSNPYYIVKQGKINQMATAPDSQRLKLLREVAGTRVYDERKEESISLMKETEGKREKINELLKYIEERLHTLEEEKEELAQYQKWDKMRRALEYTIYNQELNETRAKLDELSAKRETSGEKSRQLRDAQQDARDKMEDIERQVRELKTKISAMKEEKEQLSAERQEQIKQRTKLELKAKDLQDELAGNSEQRKRLLKERQKLLEKIEEKQKELAETEPKFNSVKEKEERGIARLAQATQERTDLYAKQGRGSQFTSKEERDKWIKKELKSLDQAINDKKRQIAAIHKDLEDTEANKEKNLEQYNKLDQDLNEVKARVEELDRKYYEVKNKKDELQSERNYLWREENAEQQALAAKREDLEKKQQLLRAATGKAILNGIDSINKVLDHFRRKGINQHVQNGYHGIVMNNFECEPAFYTCVEVTAGNRLFYHIVDSDEVSTKILMEFNKMNLPGEVTFLPLNKLDVRDTAYPETNDAIPMISKLRYNPRFDKAFKHVFGKTLICRSMEVSTQLARAFTMDCITLEGDQVSHRGALTGGYYDTRKSRLELQKDVRKAEEELGELEAKLNENLRRNIERINNEIDQLMNQMQQIETQQRKFKASRDSILSEMKMLKEKRQQSEKTFMPKQRSLQSLEASLHAMESTRESLKAELGTDLLSQLSLEDQKRVDALNDEIRQLQQENRQLLNERIKLEGIITRVETYLNENLRKRLDQVEQELNELRETEGGTVLTATTSELEAINKRVKDTMARSEDLDNSIDKTEAGIKELQKSMERWKNMEKEHMDAINHDTKELEKMTNRQGMLLKKKEECMKKIRELGSLPQEAFEKYQTLSLKQLFRKLEQCNTELKKYSHVNKKALDQFVNFSEQKEKLIKRQEELDRGYKSIMELMNVLELRKYEAIQLTFKQVSKNFSEVFQKLVPGGKATLVMKKGDVEGSQSQDEGEGSGESERGSGSQSSVPSVDQFTGVGIRVSFTGKQGEMREMQQLSGGQKSLVALALIFAIQKCDPAPFYLFDEIDQALDAQHRKAVSDMIMELAVHAQFITTTFRPELLESADKFYGVKFRNKVSHIDVITAEMAKDFVEDDTTHG
Consider B4, for which the binding result was “binds”.

B5: Huntingtin-interacting protein 1-related protein (other)
chain: MNSIKNVPARVLSRRPGHSLEAEREQFDKTQAISISKAINTQEAPVKEKHARRIILGTHHEKGAFTFWSYAIGLPLPSSSILSWKFCHVLHKVLRDGHPNVLHDCQRYRSNIREIGDLWGHLHDRYGQLVNVYTKLLLTKISFHLKHPQFPAGLEVTDEVLEKAAGTDVNNIFQLTVEMFDYMDCELKLSESVFRQLNTAIAVSQMSSGQCRLAPLIQVIQDCSHLYHYTVKLLFKLHSCLPADTLQGHRDRFHEQFHSLRNFFRRASDMLYFKRLIQIPRLPEGPPNFLRASALAEHIKPVVVIPEEAPEDEEPENLIEISTGPPAGEPVVVADLFDQTFGPPNGSVKDDRDLQIESLKREVEMLRSELEKIKLEAQRYIAQLKSQVNALEGELEEQRKQKQKALVDNEQLRHELAQLRAAQLEGERSQGLREEAERKASATEARYNKLKEKHSELVHVHAELLRKNADTAKQLTVTQQSQEEVARVKEQLAFQVEQVKRESELKLEEKSDQLEKLKRELEAKAGELARAQEALSHTEQSKSELSSRLDTLSAEKDALSGAVRQREADLLAAQSLVRETEAALSREQQRSSQEQGELQGRLAERESQEQGLRQRLLDEQFAVLRGAAAEAAGILQDAVSKLDDPLHLRCTSSPDYLVSRAQEALDAVSTLEEGHAQYLTSLADASALVAALTRFSHLAADTIINGGATSHLAPTDPADRLIDTCRECGARALELMGQLQDQQALRHMQASLVRTPLQGILQLGQELKPKSLDVRQEELGAVVDKEMAATSAAIEDAVRRIEDMMNQARHASSGVKLEVNERILNSCTDLMKAIRLLVTTSTSLQKEIVESGRGAATQQEFYAKNSRWTEGLISASKAVGWGATQLVEAADKVVLHTGKYEELIVCSHEIAASTAQLVAASKVKANKHSPHLSRLQECSRTVNERAANVVASTKSGQEQIEDRDTMDFSGLSLIKLKKQEMETQVRVLELEKTLEAERMRLGELRKQHYVLAGASGSPGEEVAIRPSTAPRSVTTKKPPLAQKPSVAPRQDHQLDKKDGIYPAQLVNY
As for B5, the binding result was “binds”.
